Experimental findings from patent US20210130804 are described below.

What all share (assay): cleavage_in_vitro
Data set [1] has as its system T1, OMNI-39 TXTL (Butyrivibrio sp. AC2005).
T1 sequence: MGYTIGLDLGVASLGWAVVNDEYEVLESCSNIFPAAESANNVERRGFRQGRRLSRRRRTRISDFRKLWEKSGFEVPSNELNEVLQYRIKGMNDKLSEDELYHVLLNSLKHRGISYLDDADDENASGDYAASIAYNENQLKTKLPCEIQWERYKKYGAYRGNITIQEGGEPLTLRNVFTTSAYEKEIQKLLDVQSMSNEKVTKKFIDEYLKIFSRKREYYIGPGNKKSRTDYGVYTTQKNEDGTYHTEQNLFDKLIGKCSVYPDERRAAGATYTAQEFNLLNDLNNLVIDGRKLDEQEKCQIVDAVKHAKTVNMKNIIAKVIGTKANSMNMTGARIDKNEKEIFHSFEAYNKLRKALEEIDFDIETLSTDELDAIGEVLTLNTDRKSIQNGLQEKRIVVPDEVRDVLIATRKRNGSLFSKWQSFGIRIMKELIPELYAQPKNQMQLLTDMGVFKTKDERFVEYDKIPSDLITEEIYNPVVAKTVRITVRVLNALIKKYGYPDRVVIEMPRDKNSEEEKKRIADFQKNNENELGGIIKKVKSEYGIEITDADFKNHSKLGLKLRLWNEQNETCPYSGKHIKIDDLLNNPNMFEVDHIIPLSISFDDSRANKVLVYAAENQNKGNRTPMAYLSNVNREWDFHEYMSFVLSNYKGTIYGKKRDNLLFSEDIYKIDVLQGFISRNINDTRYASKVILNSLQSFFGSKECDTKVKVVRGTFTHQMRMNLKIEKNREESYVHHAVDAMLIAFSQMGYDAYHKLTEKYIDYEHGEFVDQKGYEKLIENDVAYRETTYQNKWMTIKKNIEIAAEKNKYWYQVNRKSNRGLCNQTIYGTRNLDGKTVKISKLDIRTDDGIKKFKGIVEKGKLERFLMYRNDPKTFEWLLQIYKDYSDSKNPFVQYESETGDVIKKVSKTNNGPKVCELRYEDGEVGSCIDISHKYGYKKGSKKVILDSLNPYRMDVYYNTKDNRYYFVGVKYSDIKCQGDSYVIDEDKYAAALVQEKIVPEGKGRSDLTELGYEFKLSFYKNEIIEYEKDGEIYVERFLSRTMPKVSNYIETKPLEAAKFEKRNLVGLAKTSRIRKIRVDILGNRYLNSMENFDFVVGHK
The note with it: PAM NNGHAD general, NNGYAA specific.

Data set [2] relates to T2, OMNI-40 TXTL (Aliiarcobacter faecis).
T2 sequence: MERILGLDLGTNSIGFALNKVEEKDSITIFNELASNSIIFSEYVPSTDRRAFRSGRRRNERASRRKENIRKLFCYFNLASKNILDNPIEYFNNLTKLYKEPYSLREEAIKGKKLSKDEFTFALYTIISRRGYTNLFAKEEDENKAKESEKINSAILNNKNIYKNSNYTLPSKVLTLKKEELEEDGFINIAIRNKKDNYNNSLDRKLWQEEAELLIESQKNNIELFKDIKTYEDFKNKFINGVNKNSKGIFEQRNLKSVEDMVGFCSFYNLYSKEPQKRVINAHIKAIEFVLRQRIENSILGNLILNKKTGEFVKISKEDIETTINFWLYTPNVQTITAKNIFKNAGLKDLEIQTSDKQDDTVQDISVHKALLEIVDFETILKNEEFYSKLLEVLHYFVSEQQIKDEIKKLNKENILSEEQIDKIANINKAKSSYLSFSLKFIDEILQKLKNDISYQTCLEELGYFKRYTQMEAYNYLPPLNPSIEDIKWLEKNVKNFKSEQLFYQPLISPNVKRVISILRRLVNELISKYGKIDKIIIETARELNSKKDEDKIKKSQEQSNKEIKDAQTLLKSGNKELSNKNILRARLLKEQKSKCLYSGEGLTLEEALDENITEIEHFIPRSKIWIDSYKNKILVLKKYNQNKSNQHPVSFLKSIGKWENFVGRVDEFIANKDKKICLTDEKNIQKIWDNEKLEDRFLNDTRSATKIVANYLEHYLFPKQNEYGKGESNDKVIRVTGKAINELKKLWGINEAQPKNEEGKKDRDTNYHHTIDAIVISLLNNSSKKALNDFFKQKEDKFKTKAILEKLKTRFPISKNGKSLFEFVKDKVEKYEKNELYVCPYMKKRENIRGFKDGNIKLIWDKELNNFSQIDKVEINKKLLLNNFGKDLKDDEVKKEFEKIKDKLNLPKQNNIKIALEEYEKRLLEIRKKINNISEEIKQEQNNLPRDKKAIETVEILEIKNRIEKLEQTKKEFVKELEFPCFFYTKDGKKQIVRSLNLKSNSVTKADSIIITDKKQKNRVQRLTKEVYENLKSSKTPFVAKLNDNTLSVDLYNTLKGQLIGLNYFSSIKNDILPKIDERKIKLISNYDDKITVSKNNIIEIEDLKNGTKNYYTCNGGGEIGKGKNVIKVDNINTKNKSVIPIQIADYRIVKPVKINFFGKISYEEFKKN
The note with it: PAM NYGRV.

For data set [3], the system named is T3, OMNI-50 TXTL (Ezakiella peruensis strain M6.X2).
T3 sequence: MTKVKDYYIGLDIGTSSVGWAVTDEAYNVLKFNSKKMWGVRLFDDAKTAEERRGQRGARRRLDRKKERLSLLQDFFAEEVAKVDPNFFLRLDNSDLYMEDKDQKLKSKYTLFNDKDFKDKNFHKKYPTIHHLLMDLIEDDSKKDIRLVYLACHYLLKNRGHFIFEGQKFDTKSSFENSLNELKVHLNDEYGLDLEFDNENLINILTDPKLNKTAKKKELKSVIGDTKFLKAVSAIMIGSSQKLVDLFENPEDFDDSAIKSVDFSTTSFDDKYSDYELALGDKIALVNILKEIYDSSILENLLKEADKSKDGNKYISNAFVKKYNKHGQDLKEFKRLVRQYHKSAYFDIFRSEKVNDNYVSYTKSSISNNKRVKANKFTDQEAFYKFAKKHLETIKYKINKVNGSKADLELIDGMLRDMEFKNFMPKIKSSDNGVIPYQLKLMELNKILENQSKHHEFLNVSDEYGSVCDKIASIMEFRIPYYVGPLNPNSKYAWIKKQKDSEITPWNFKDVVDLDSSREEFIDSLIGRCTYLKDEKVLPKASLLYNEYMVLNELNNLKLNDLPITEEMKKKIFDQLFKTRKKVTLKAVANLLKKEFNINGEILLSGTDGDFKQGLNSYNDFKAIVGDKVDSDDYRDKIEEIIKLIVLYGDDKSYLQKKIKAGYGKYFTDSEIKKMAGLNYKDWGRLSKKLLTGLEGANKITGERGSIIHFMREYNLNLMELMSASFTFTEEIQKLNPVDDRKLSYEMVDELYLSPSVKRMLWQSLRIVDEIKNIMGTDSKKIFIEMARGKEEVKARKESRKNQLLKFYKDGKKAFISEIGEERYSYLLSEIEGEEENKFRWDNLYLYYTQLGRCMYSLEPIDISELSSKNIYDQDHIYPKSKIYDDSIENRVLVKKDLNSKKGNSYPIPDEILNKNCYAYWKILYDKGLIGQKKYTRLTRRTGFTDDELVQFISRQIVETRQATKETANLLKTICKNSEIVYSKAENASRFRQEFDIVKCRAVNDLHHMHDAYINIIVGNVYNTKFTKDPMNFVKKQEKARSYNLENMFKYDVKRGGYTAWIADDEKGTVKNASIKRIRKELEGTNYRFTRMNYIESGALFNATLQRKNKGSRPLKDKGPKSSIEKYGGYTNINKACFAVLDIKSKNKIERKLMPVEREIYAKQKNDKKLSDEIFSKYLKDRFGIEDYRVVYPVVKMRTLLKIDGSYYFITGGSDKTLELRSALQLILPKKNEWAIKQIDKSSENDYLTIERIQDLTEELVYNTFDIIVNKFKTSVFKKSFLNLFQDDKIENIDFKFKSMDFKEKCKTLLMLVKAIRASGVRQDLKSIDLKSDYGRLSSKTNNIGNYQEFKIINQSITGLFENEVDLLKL
The following applies: PAM NGG.

The test system of data set [4] is T4, OMNI-53 TXTL (Clostridium sp. AF02-29).
T4 sequence: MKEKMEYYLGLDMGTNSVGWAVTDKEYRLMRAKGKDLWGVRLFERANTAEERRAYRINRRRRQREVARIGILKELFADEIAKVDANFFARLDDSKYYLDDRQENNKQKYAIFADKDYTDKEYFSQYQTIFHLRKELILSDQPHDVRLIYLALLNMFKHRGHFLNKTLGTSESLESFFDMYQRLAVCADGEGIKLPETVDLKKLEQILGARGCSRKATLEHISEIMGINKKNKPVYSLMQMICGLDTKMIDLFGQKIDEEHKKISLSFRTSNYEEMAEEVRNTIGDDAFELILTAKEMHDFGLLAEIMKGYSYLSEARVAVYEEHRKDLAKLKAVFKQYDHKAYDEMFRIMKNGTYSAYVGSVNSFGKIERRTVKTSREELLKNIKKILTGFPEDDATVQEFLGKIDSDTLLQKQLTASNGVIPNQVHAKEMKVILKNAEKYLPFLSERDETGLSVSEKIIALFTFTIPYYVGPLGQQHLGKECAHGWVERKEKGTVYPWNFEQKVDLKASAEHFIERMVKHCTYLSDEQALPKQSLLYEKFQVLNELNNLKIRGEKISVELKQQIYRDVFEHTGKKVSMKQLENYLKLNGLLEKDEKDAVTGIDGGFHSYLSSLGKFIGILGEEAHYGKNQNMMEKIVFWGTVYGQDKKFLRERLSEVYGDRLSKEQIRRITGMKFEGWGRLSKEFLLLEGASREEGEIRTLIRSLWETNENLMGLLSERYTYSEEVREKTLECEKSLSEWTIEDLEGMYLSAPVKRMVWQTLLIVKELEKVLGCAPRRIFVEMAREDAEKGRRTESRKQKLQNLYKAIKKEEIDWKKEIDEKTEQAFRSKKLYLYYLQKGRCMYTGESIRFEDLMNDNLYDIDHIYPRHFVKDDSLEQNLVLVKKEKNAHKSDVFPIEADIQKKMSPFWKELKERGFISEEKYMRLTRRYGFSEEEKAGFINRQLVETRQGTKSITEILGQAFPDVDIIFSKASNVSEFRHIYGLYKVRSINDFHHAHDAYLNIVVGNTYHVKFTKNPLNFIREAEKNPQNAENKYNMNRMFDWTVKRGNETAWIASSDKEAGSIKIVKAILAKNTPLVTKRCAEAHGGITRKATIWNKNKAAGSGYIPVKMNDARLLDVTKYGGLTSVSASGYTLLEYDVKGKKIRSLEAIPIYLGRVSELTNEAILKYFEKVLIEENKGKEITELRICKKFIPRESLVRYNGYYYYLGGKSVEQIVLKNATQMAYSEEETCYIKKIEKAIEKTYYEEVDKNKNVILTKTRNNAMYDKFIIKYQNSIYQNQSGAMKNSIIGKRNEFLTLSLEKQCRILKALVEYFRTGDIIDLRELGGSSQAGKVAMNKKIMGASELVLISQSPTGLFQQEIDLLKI
The following applies: PAM NRHR general, NAWA specific.

In data set [1], “GGAAGAGCAGAGCCUUGGUCUCGUUUUAGUACCUAGAGAAAGAAAUUUCUUUAGACCUACUAAAAUAAGGCUUUAUGCCGAGAUUAAAGGAUGCCGACGGGCAUCCUUUUUU / GGAAGAGCAGAGCCTTGGTCTCNNNNNNNN / NNNNNNNNGAGACCAAGGCTCTGCTCTTCC [T2 sgRNA V2 OMNI-39 ; T2 protospacer 8N PAM library]” returned an activity (1-depletion score) of 0.95.
“GGAAGAGCAGAGCCUUGGUCUCGUUUUGUUACCAUAUGAUUGAAAAUUUAUAUGACCUAACAAAACAAGGGUUUAUCCCGGACUCGGCUCUUCGGAGCCUUUUU / GGAAGAGCAGAGCCTTGGTCTCNNNNNNNN / NNNNNNNNGAGACCAAGGCTCTGCTCTTCC [T2 sgRNA V2 OMNI-40 ; T2 protospacer 8N PAM library]” yielded an activity (1-depletion score) in data set [2] of 0.97.
“GGAAGAGCAGAGCCUUGGUCUCGUUUGAGAGUUAUGUAAGAAAUUACAUGACGAGUUCAAAUAAAAAUUUAUUCAAACCGCCUAUUUAUAGGCCGCAGAUGUUCUGCAUUAUGCUUGCUAUUGCAAGCUUUUUU / GGAAGAGCAGAGCCTTGGTCTCNNNNNNNN / NNNNNNNNGAGACCAAGGCTCTGCTCTTCC [T2 sgRNA V2 OMNI-50 ; T2 protospacer 8N PAM library]” yielded an activity (1-depletion score) in data set [3] of 0.98.
In data set [4], “GGAAGAGCAGAGCCUUGGUCUCGUUUGAGAACCAUGUAAGAAAUUACAUGGUGAGUGCAAAUAAGGAUUAUCCGAAAUUGUAUGCCCGCAUUGUGCGGCAAUAAAAAGGCUCGAAAGAGUCUUUUU / GGAAGAGCAGAGCCTTGGTCTCNNNNNNNN / NNNNNNNNGAGACCAAGGCTCTGCTCTTCC [T2 sgRNA V2 OMNI-53 ; T2 protospacer 8N PAM library]” registered an activity (1-depletion score) of 0.97.
